Blank lines part the entries; values can stand above or below the compound they belong to. Numbered stars: 1 amine (or outer) side, 2 acyl side, 3 side chain; on linkers, the order of the positions; unused ones are H or OH. Square brackets hold non-standard residues; d marks the D form. Peptide text beside a SMILES is read from it. * marks the point of attachment. DOTA = O=C(O)CN1CCN(CC(=O)O)CCN(CC(=O)*)CCN(CC(=O)O)CC1; Cha = N[C@@H](CC1CCCCC1)C(=O)O; X1 = O=C(CCC(=O)[*:2])CN[*:1]; 4Abz = Nc1ccc(C(=O)O)cc1; Nle = CCCC[C@H](N)C(=O)O
Experiments:
[1] = biological target: T1, BN/GRP receptor-positive T47D human breast cancer cells (Homo sapiens, UniProt P30550); experiment: Saturation binding assay on T47D cells; settings: n = 3-5 experiments; for Bmax (apparent number of binding sites per cell): SD < 15%
T1 construct: BN/GRP receptor-positive MDA-MB-231, MCF7, T47D human breast cancer, and PC3 human prostate cancer lines; host or cells: MDA-MB-231, MCF7, T47D (human breast cancer), PC3 (human prostate cancer); intact cells
Method: (§1) The cell binding of ^68Ga-radiolabeled peptides into BN/GRP receptor-positive MDA-MB-231, MCF7, T47D human breast cancer, and PC3 human prostate cancer lines (American Type Culture Collection, Rockville, MD, USA) was performed according to the method described previously. In brief, ∼ 300,000 cells (in 300 μL in low-serum media) were incubated with various amounts of radiopeptides, ranging between 0.1 and 25 nM of peptide (prepared from the serial dilutions of HPLC-purified radiopeptides), in duplicate for 60 min at room temperature. The initial concentrations of ^68Ga-labeled peptides were determined according to a well-established HPLC technique with simultaneous detection by UV absorbance. As the amount of BN peptide in the reaction mixture was too small to be detected by UV absorption at 220 nm, the radioactive peptide chromatograms from the HPLC analysis were compared (with UV chromatograms) with those of known concentrations of the corresponding nonradioactive peptides for the mass determination. Incubation was terminated by dilution with cold saline (300 μL) and the cells were pelleted by centrifugation. The cell pellets was then rapidly washed with cold saline to remove any unbound peptide and centrifuged to collect supernatants. Radioactivity in the cell pellet and the washings was measured in a γ-counter. Non-specific binding was determined in the presence of ~ 200-fold molar excess of unlabeled BN peptide. Specific binding is calculated by subtracting the non-specifically bound radioactivity from that of the total binding. The dissociation constant (Kd) was calculated using a plot of cell bound activity versus the concentration of the radioligand using GraphPad Prism software (GraphPad Software Inc., San Diego, CA, USA).

[2] = Radio-HPLC retention time as reflection of lipophilicity; format: physicochemical; settings: chromatographic, econosphere C18 (10 μm, 250 × 4.6 mm), 0.1% TFA water/acetonitrile, 5 to 95% B over 30 min, 1.1 mL/min; radio detection; used as reflection of lipophilicity
Method: The HPLC analysis and purification of the peptides were performed on a Shimadzu HPLC system using econosphere C18 reversed-phase column (10 μm, 250 × 4.6 mm). For all HPLC experiments, a gradient system of 0.1% (v/v) TFA in water (solvent A) and 0.1% (v/v) TFA in acetonitrile (solvent B) at a flow rate of 1.1 mL/min was used. The HPLC gradient began with a solvent composition of 95% A and 5% B from 0 to 2.5 min followed by a linear gradient of 95% A and 5% B to 5% A and 95% B over 30 min. The gradient remained at this position for 3 min before switching back to 95% A and 5% B for another 7 min. The major peak isolated and the acetonitrile was then slowly evaporated under a stream of nitrogen gas. Radiochemical purity was estimated by evaluating radioactivity peaks eluted for each ^68Ga-labeled peptide from the HPLC column and calculating the area under the peak (ROI). The main peak of each radiopeptide was isolated and reconstituted in sterile saline for in vitro and in vivo experiments. Radiolabeling of DOTA-coupled BN peptides with ^68Ga was accomplished simply by mixing ~ 20 μg BN peptide with sodium acetate buffer and ^68GaCl3 followed by heating to complete the labeling reaction. By this facile method, a high and reproducible radiolabeling of peptides with ^68Ga was achieved (up to 95%), with a specific radioactivity of greater than 250 Ci/mmol. […] A radiolabeling efficiency of greater than 90% was obtained in all cases, and it ranged between 90 and 95%. […] RP-HPLC retention times of the major peaks, ranging from 18.3 to 20.3 min, reflected slightly variable lipophilicity of these ^68Ga-complexes (Table 1).

[3] = biological target: T2, BN/GRP receptor-positive PC3 human prostate cancer cells (Homo sapiens, UniProt P30550); experiment: Saturation binding assay on PC3 cells; settings: n = 3-5 experiments; for Bmax (apparent number of binding sites per cell): SD < 15%
T2 construct: BN/GRP receptor-positive MDA-MB-231, MCF7, T47D human breast cancer, and PC3 human prostate cancer lines; host or cells: MDA-MB-231, MCF7, T47D (human breast cancer), PC3 (human prostate cancer); intact cells
Method: as §1

in vivo = experiment: in vivo; parameters: species or system Balb/c mice; settings: Balb/c, mouse, iv
Method: Approval for the animal protocol used in this study was obtained from the Institutional Animal Care and Use Committee. Animal studies were conducted according to the international regulations governing the safe and proper use of laboratory animals. In vivo biodistribution were performed on healthy Balb/c mice (n = 3–5 in each group, body weight 19–22 g) at 1 and 2 h after intravenous injection of the HPLC-purified radiopeptide (100 μL, 15–20 μCi, total peptide dose ~ 20 ng) via the lateral tail vein. The mice were sacrificed by cervical dislocation at specified time points and blood samples were withdrawn with a syringe from the heart. Major organs such as lungs, stomach, spleen, pancreas, intestines, liver, kidneys, etc. were isolated, weighed, and radioactivity in each organs and tissues were measured using a γ-scintillation counter. Uptake of radioactivity in the tissues and organs was expressed as the percent injected dose per gram (% ID/g) of tissue/organ, which was calculated by comparison with standard solutions representing 10% of the injected dose per animal. For the clearance studies, radioactivity in the urine with bladder and feces is expressed as the percent of the injected dose per tissue (% ID). Values are expressed as mean ± SD for a group of 3-5 animals at each time point.

[4] = ~300,000 cells, 0.1-25 nM radiopeptide, 60 min, room temperature, mean ± SD
[5] = total radioactivity, %ID excreted in Feces
[6] = total radioactivity, Uptake in Blood
[7] = total radioactivity, Uptake in Bone
[8] = total radioactivity, Uptake in Intestines (measured without their contents)
[9] = total radioactivity, Uptake in Kidneys
[10] = total radioactivity, Uptake in Pancreas
[11] = total radioactivity, Uptake in Spleen
[12] = total radioactivity, Uptake in Stomach

Bmax (apparent number of binding sites per cell) [1]: 9.90 × 10^4 sites/cell
Kd [1, 4]: 15.6 ± 3.47 nM
Bmax (apparent number of binding sites per cell) [3]: 2.12 × 10^5 sites/cell
Kd [3, 4]: 9.7 ± 2.01 nM
Compound: CCCC[C@H](NC(=O)[C@H](Cc1c[nH]cn1)NC(=O)[C@H](CC1CCCCC1)NC(=O)[C@@H](NC(=O)[C@H](C)NC(=O)[C@H](Cc1c[nH]c2ccccc12)NC(=O)[C@H](CCC(N)=O)NC(=O)[C@H](CS)NC(=O)CNC(=O)CNC(=O)CCC(=O)CNC(=O)CN1CCN(CC(=O)O)CCN(CC(=O)O)CCN(CC(=O)O)CC1)C(C)C)C(=O)N[C@@H](CCSC)C(N)=O [^68Ga-DOTA-ALA-BN Cyclen, metal not drawn] ({DOTA}-[X1]GGCQWAV[Cha]H[Nle]M-NH2)
Radio-HPLC tR [2]: 20.3 min
Uptake in Lungs (in vivo; 1 h): 1.39 ± 0.30 %ID/g
%ID excreted in Urine (in vivo; 2 h): 46.0 ± 9.12 %ID
Uptake in Liver (in vivo; 2 h): 1.75 ± 0.26 %ID/g
Uptake in Lungs (in vivo; 2 h): 0.98 ± 0.23 %ID/g
dose excreted at 1 h (in vivo; [5]): 1.07 ± 0.17%
dose excreted at 2 h (in vivo; [5]): 0.91 ± 0.14%
dose excreted at 1 h (in vivo; total radioactivity, %ID excreted in Urine): 53 ± 6.8%
tissue uptake at 1 h (in vivo; [6]): 0.8 ± 0.16 %ID/g
tissue uptake at 2 h (in vivo; [6]): 0.51 ± 0.12 %ID/g
tissue uptake at 1 h (in vivo; [7]): 0.24 ± 0.04 %ID/g
tissue uptake at 2 h (in vivo; [7]): 0.15 ± 0.02 %ID/g
tissue uptake at 1 h (in vivo; [8]): 0.88 ± 0.15 %ID/g
tissue uptake at 2 h (in vivo; [8]): 0.73 ± 0.12 %ID/g
tissue uptake at 1 h (in vivo; [9]): 5.89 ± 1 %ID/g
tissue uptake at 2 h (in vivo; [9]): 3.05 ± 0.41 %ID/g
tissue uptake at 1 h (in vivo; total radioactivity, Uptake in Liver): 2.3 ± 0.37 %ID/g
tissue uptake at 1 h (in vivo; [10]): 1.54 ± 0.31 %ID/g
tissue uptake at 2 h (in vivo; [10]): 0.89 ± 0.12 %ID/g
tissue uptake at 1 h (in vivo; [11]): 0.1 ± 0.01 %ID/g
tissue uptake at 2 h (in vivo; [11]): 0.08 %ID/g
tissue uptake at 1 h (in vivo; [12]): 1.5 ± 0.37 %ID/g
tissue uptake at 2 h (in vivo; [12]): 0.44 ± 0.1 %ID/g

Compound: CCCC[C@H](NC(=O)[C@H](Cc1c[nH]cn1)NC(=O)[C@H](CC1CCCCC1)NC(=O)[C@@H](NC(=O)[C@H](C)NC(=O)[C@H](Cc1c[nH]c2ccccc12)NC(=O)[C@H](CCC(N)=O)NC(=O)[C@H](CS)NC(=O)CNC(=O)CNC(=O)c1ccc(NC(=O)CN2CCN(CC(=O)O)CCN(CC(=O)O)CCN(CC(=O)O)CC2)cc1)C(C)C)C(=O)N[C@@H](CCSC)C(N)=O [^68Ga-DOTA-Abz-BN Tris-, metal not drawn] ({DOTA-4Abz}-GGCQWAV[Cha]H[Nle]M-NH2)
Bmax (apparent number of binding sites per cell) [1]: 1.0 × 10^5 sites/cell
Radio-HPLC tR [2]: 19.3 min
Bmax (apparent number of binding sites per cell) [3]: 5.90 × 10^5 sites/cell
%ID excreted in Feces (in vivo; 1 h): 0.90 ± 0.10 %ID
%ID excreted in Urine (in vivo; 1 h): 43.0 ± 8.70 %ID
Uptake in Blood (in vivo; 1 h): 0.66 ± 0.13 %ID/g
Uptake in Bone (in vivo; 1 h): 0.22 ± 0.05 %ID/g
Uptake in Intestines (measured without their contents) (in vivo; 1 h): 0.79 ± 0.16 %ID/g
Uptake in Kidneys (in vivo; 1 h): 4.0 ± 0.82 %ID/g
Uptake in Liver (in vivo; 1 h): 1.59 ± 0.23 %ID/g
Uptake in Lungs (in vivo; 1 h): 0.58 ± 0.10 %ID/g
Uptake in Pancreas (in vivo; 1 h): 1.48 ± 0.12 %ID/g
Uptake in Spleen (in vivo; 1 h): 0.11 ± 0.01 %ID/g
Uptake in Stomach (in vivo; 1 h): 1.82 ± 0.36 %ID/g
%ID excreted in Feces (in vivo; 2 h): 0.59 ± 0.08 %ID
%ID excreted in Urine (in vivo; 2 h): 50.0 ± 3.45 %ID
Uptake in Blood (in vivo; 2 h): 0.31 ± 0.05 %ID/g
Uptake in Bone (in vivo; 2 h): 0.12 ± 0.01 %ID/g
Uptake in Intestines (measured without their contents) (in vivo; 2 h): 0.61 ± 0.09 %ID/g
Uptake in Kidneys (in vivo; 2 h): 2.86 ± 0.37 %ID/g
Uptake in Liver (in vivo; 2 h): 0.91 ± 0.15 %ID/g
Uptake in Lungs (in vivo; 2 h): 0.40 ± 0.08 %ID/g
Uptake in Pancreas (in vivo; 2 h): 0.97 ± 0.05 %ID/g
Uptake in Spleen (in vivo; 2 h): 0.10 ± 0.01 %ID/g
Uptake in Stomach (in vivo; 2 h): 0.52 ± 0.12 %ID/g

— PMC6733935, “A convenient and efficient total solid-phase synthesis of DOTA-functionalized tumor-targeting peptides for PET imaging of cancer” (EJNMMI Research, 2019)
